Test [1] addresses full-length, wild-type human KIT expressed on CHO cells (human, UniProt P10721 26-976). Kind of test: cell-based or functional assay.
Test [2] concerns the target T1, recombinant KIT D4/D5 (human, UniProt P10721 26-519).
T1 construct: also called recombinant c-Kit Ig-like domains D4/D5; recombinant polypeptide of the D4/D5 region of human KIT
Kind of test: direct binding ELISA, plate-coated recombinant KIT D4/D5; assay #3 (purified). The protocol: (§1) The binding affinity of the anti-KIT antibodies to the target antigen KIT Ig-like domains D4/D5 was assessed by direct binding ELISA. […] Bound antibody was detected with anti-human Ig-HRP followed by detection using TMB substrate.

Test [3] concerns the target T1, recombinant KIT D4/D5. The test is described as follows: direct binding ELISA, plate-coated recombinant KIT D4/D5; assay #1 (supernatant). Here is the method: as §1
On the technique in general: An ELISA detects its analyte on a solid surface through an enzyme-linked reagent.

Test [4] concerns the target T1, recombinant KIT D4/D5. Kind of test: direct binding ELISA, plate-coated recombinant KIT D4/D5; assay #2 (supernatant). The protocol:
as §1

Test [5] has as its target T1, recombinant KIT D4/D5. Kind of test: direct binding ELISA, plate-coated recombinant KIT D4/D5; assay #4 (purified). The protocol:
as §1

Chain of full-length, wild-type human KIT expressed on CHO cells (P10721 other isoform, or with tags, fused parts or gaps limits assumed): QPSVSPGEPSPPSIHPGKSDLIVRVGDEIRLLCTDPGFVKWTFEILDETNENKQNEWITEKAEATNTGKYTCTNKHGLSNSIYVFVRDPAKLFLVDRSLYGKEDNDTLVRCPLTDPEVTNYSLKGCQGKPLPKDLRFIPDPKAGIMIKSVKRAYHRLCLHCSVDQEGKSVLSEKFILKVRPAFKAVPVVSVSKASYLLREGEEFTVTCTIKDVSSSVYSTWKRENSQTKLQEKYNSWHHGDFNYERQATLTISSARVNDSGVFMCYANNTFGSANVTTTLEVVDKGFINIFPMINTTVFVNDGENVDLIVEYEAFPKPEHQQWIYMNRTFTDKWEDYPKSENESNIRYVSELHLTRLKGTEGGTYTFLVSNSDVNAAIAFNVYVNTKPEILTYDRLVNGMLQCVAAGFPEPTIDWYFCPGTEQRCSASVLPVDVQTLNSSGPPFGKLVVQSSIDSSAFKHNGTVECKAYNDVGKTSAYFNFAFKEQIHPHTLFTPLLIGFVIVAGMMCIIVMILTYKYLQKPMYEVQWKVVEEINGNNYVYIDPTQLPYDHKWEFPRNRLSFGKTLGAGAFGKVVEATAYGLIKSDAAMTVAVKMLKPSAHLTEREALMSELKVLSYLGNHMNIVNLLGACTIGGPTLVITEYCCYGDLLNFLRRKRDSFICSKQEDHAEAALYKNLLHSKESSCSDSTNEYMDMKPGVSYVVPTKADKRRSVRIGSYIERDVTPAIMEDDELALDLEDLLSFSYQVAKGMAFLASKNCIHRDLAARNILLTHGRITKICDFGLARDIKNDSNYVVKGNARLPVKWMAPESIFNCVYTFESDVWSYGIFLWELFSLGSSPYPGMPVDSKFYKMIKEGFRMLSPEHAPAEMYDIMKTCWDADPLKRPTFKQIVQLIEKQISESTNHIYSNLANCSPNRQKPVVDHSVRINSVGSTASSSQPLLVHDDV
T1 sequence (P10721 other isoform, or with tags, fused parts or gaps limits assumed): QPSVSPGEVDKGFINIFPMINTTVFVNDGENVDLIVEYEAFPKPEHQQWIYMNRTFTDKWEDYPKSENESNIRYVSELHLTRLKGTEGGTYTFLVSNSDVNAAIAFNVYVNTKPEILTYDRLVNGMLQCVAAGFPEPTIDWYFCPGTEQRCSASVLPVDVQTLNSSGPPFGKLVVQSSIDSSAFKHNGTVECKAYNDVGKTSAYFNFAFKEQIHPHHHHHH

B1: Hum9 (antibody, V domains shown)
VH: QVQLVQSGAEVKKPGASVKVSCKASGYTFTDYYINWVRQAPGKGLEWIARIYPGSGNTYYNEKFKGRATITADKSTSTAYMELSSLRSEDTAVYFCARGVYYFDYWGQGTTVTVSS
VL: DIVMTQSPSSLSASVGDRVTITCKASQNVRTNVAWYQQKPGKAPKALIYSASYRYSGVPDRFTGSGSGTDFTLTISSLQPEDFADYFCQQYNSYPRTFGGGTKVEIK
In the case of B1, the “Relative blocking activity, assay #3 (96-well): IC50 of inhibition of SCF-induced KIT phosphorylation, normalized to chimeric 37M antibody” value in test [1] was 1.05 relative to chimeric 37M antibody. The values for the Relative binding activity with recombinant KIT D4/D5 [2], in the test with recombinant KIT D4/D5 [3] and in the test with recombinant KIT D4/D5 [4] were 0.85 relative to chimeric antibody 37C (normalized EC50), 1.08 relative to chimeric antibody 37C (normalized EC50) and 1 relative to chimeric antibody 37C (normalized EC50), respectively.

B2: Hum14 (antibody, V domains shown)
VH: QVQLVQSGAEVKKPGASVKVSCKASGYTFTDYYINWVRQAPGKGLEWIARIYPGSGNTYYNEKFKGRATITADKSTSTAYMELSSLRSEDTAVYFCARGVYYFDYWGQGTTVTVSS
VL: DIVMTQSPSSLSASVGDRVTITCKASQNVRTNVAWYQQKPGKAPKALIYSASYRYSGVPDRFSGSGSGTDFTLTISSLQPEDFADYFCQQYNSYPRTFGGGTKVEIK
Take B2: the “Relative blocking activity, assay #2 (24-well): IC50 of inhibition of SCF-induced KIT phosphorylation, normalized to chimeric 37M antibody” value in test [1] is 0.94 relative to chimeric 37M antibody. For the same molecule, the Relative binding activity is 0.74 relative to chimeric antibody 37C (normalized EC50) with recombinant KIT D4/D5 [2], 1.14 relative to chimeric antibody 37C (normalized EC50) in the test with recombinant KIT D4/D5 [3] and 1.03 relative to chimeric antibody 37C (normalized EC50) with recombinant KIT D4/D5 [4].

B3: Hum18 (antibody, V domains shown)
VH: QVQLVQSGAEVKKPGASVKLSCKASGYTFTDYYINWVRQAPGKGLEWIARIYPGSGNTYYNEKFKGRATLTADKSTSTAYMQLSSLRSEDTAVYFCARGVYYFDYWGQGTTVTVSS
VL: DIVMTQSPSSLSASVGDRVTITCKASQNVRTNVAWYQQKPGKAPKSLIYSASYRYSGVPDRFSGSGSGTDFTLTISSLQPEDFATYYCQQYNSYPRTFGGGTKVEIK
On to B3, for which the “Relative blocking activity, assay #2 (24-well): IC50 of inhibition of SCF-induced KIT phosphorylation, normalized to chimeric 37M antibody” value in test [1] was 1.22 relative to chimeric 37M antibody. Besides, the results for the Relative binding activity in the test with recombinant KIT D4/D5 [2], with recombinant KIT D4/D5 [3] and with recombinant KIT D4/D5 [4] were 0.99 relative to chimeric antibody 37C (normalized EC50), 1.22 relative to chimeric antibody 37C (normalized EC50) and 0.79 relative to chimeric antibody 37C (normalized EC50), respectively.

B4: Hum13 (antibody, V domains shown)
VH: QVQLVQSGAEVKKPGASVKLSCKASGYTFTDYYINWVRQAPGKGLEWIARIYPGSGNTYYNEKFKGRATLTADKSTSTAYMQLSSLRSEDTAVYFCARGVYYFDYWGQGTTVTVSS
VL: DIVMTQSPSSLSASVGDRVTITCKASQNVRTNVAWYQQKPGKAPKALIYSASYRYSGVPDRFSGSGSGTDFTLTISSLQPEDFADYFCQQYNSYPRTFGGGTKVEIK
With B4, the “Relative blocking activity, assay #3 (96-well): IC50 of inhibition of SCF-induced KIT phosphorylation, normalized to chimeric 37M antibody” value in test [1] is 1 relative to chimeric 37M antibody. The Relative binding activity with recombinant KIT D4/D5 [3] was 1.11 relative to chimeric antibody 37C (normalized EC50); with recombinant KIT D4/D5 [4] it was 0.78 relative to chimeric antibody 37C (normalized EC50).

B5: Hum16 (antibody, V domains shown)
VH: QVQLVQSGAELKKPGASVKLSCKASGYTFTDYYINWVKQAPGKGLEWIARIYPGSGNTYYNEKFKGRATLTAEKSTSTAYMQLSSLRSEDSAVYFCARGVYYFDYWGQGTTVTVSS
VL: DIVMTQSPSSLSASVGDRVTITCKASQNVRTNVAWYQQKPGKAPKSLIYSASYRYSGVPDRFSGSGSGTDFTLTISSLQPEDFATYYCQQYNSYPRTFGGGTKVEIK
Regarding B5, the figures for the Relative binding activity in the test with recombinant KIT D4/D5 [3] and with recombinant KIT D4/D5 [4] were 1.2 relative to chimeric antibody 37C (normalized EC50) and 1.02 relative to chimeric antibody 37C (normalized EC50), respectively.

B6: Hum20 (antibody, V domains shown)
VH: QVQLVQSGAEVKKPGASVKVSCKASGYTFTDYYINWVRQAPGKGLEWIARIYPGSGNTYYNEKFKGRVTITADKSTSTAYMELSSLRSEDTAVYFCARGVYYFDYWGQGTTVTVSS
VL: DIVMTQSPSSLSASVGDRVTITCKASQNVRTNVAWYQQKPGKAPKSLIYSASYRYSGVPDRFSGSGSGTDFTLTISSLQPEDFATYYCQQYNSYPRTFGGGTKVEIK
Consider B6, for which the Relative binding activity is 0.8 relative to chimeric antibody 37C (normalized EC50) with recombinant KIT D4/D5 [3] and 0.7 relative to chimeric antibody 37C (normalized EC50) with recombinant KIT D4/D5 [4].

B7: Hum15 (antibody, V domains shown)
VH: QVQLVQSGAEVKKPGASVKVSCKASGYTFTDYYINWVRQAPGKGLEWIARIYPGSGNTYYNEKFKGRVTITADKSTSTAYMELSSLRSEDTAVYFCARGVYYFDYWGQGTTVTVSS
VL: DIVMTQSPSSLSASVGDRVTITCKASQNVRTNVAWYQQKPGKAPKALIYSASYRYSGVPDRFSGSGSGTDFTLTISSLQPEDFADYFCQQYNSYPRTFGGGTKVEIK
Turning to B7, the “Relative blocking activity, assay #1 (24-well): IC50 of inhibition of SCF-induced KIT phosphorylation, normalized to chimeric 37M antibody” value in test [1] was 0.98 relative to chimeric 37M antibody. Further, the “Relative blocking activity, assay #3 (96-well): IC50 of inhibition of SCF-induced KIT phosphorylation, normalized to chimeric 37M antibody” value in test [1] was 0.99 relative to chimeric 37M antibody. In addition, the Relative binding activity with recombinant KIT D4/D5 [2] is 0.87 relative to chimeric antibody 37C (normalized EC50); with recombinant KIT D4/D5 [3] it was 0.87 relative to chimeric antibody 37C (normalized EC50); with recombinant KIT D4/D5 [4], 0.76 relative to chimeric antibody 37C (normalized EC50).

B8: Hum19 (antibody, V domains shown)
VH: QVQLVQSGAEVKKPGASVKVSCKASGYTFTDYYINWVRQAPGKGLEWIARIYPGSGNTYYNEKFKGRATITADKSTSTAYMELSSLRSEDTAVYFCARGVYYFDYWGQGTTVTVSS
VL: DIVMTQSPSSLSASVGDRVTITCKASQNVRTNVAWYQQKPGKAPKSLIYSASYRYSGVPDRFSGSGSGTDFTLTISSLQPEDFATYYCQQYNSYPRTFGGGTKVEIK
Consider B8, for which the “Relative blocking activity, assay #1 (24-well): IC50 of inhibition of SCF-induced KIT phosphorylation, normalized to chimeric 37M antibody” value in test [1] is 1.09 relative to chimeric 37M antibody. For the same molecule, the “Relative blocking activity, assay #3 (96-well): IC50 of inhibition of SCF-induced KIT phosphorylation, normalized to chimeric 37M antibody” value in test [1] was 0.98 relative to chimeric 37M antibody. Further, in test [1], the “Relative blocking activity, assay #4 (96-well): IC50 of inhibition of SCF-induced KIT phosphorylation, normalized to chimeric 37M antibody” value was 1.4 relative to chimeric 37M antibody. Further, the Relative binding activity with recombinant KIT D4/D5 [2] is 0.95 relative to chimeric antibody 37C (normalized EC50); with recombinant KIT D4/D5 [5], 0.85 relative to chimeric antibody 37C (normalized EC50); with recombinant KIT D4/D5 [3], 1.11 relative to chimeric antibody 37C (normalized EC50); with recombinant KIT D4/D5 [4] it was 1.05 relative to chimeric antibody 37C (normalized EC50).

For the origin of these results see US20190106510A1 (CELLDEX THERAPEUTICS, published 2019).
